# Measured values reported in PMC2173386 (The Journal of Cell Biology, 2002).
# T1: His-p47(171–270) (UniProt O35987 171-270)
# T1 sequence (looked up): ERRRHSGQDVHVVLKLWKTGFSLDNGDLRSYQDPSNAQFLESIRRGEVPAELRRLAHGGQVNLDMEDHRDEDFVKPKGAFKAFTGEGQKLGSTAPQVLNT
# B1: GST-tagged p97(1–74) (domain or fragment, rat, UniProt P46462 1-74, looked up)
# chain: MASGADSKGDDLSTAILKQKNRPNRLIVDEAINEDNSVVSLSQPKMDELQLFRGDTVLLKGKKRREAVCIVLSD
# B2: His-tagged VCIP135(744–1221) (domain or fragment, rat, UniProt Q8CF97 744-1221, looked up)
# chain: TVSPSTIRDGPSSAPATPTKAPYSPTTSKEKKIRITTNDGRQSMVTLKSSTTFFELQESIAREFNIPPYLQCIRYGFPPKELMPPQAGMEKEPVPLQHGDRITIEILKGKAEGGPSTAAHSAHTVRQEEIAVTGKLSSKELQEQADKEMYSLCLLATLMGEDVWSYAKGLPHMFQQGGVFYNIMKKTMGMADGKHCTFPHLPGKTFVYNASEDRLELCVDAAGHFPIGPDVEDLVKEAVSQVRAEATTRSRESSPSHGLLKLGSGGVVKKKSEQLHNVTAFQGKGHSLGTASSNPHMDPRARETLAVRKHNTGTDFSNSSIKTEPPVFTAASSNSELIRIAPGVVTMRDGRQIDPDVVEAQRKKLQEMVSSIQASMDKHLRDQSTEQTPSDLSQRKVEAVSSSVRPGNLQTGLPESFSLTGGTENLNTETTDSRVADVLGAAFATRSKAQKENSMEEPEEMDSQDAETTNTTEPMDHS
# B3: GST-tagged p47(271–370) (domain or fragment, UniProt O35987 271-370, looked up)
# chain: SSPAQQAENEAKASSSILINEAEPTTNIQIRLADGGRLVQKFNHSHRISDIRLFIVDARPAMAATSFVLMTTFPNKELADENQTLKEANLLNAVIVQRLT
# B4: GST-tagged p47(171–270) (domain or fragment, UniProt O35987 171-270, looked up)
# chain: T1 sequence (looked up)
# Experiments:
# His-p47(171–270) = molecular target: T1, His-p47(171–270); assay: pull-down
# [1] = molecular target: T2, p97 (valosin-containing protein) (rat, UniProt P46462 1-806); assay: co-IP
# [2] = molecular target: T2, p97 (valosin-containing protein); assay: pull-down
Binder,binding result [2],also measured
B1,,binding result (His-p47(171–270)): binds
B2,,binding result [1]: binds
B3,binds,
B4,binds,
